Here are results for one substance from US4748122A, “2,5-diketo-D-gluconic acid reductase” (Shionogi & Co., Ltd., priority 1983, dated 1988).

“And” between values parts separate entries of the source, which are not always exact repeats. Equal entries are not always repeated.

Data set [1] in a line: Isoelectric point electrophoresis of the enzyme. Type of data set: physicochemical. As to the method:
(10) Isoelectric point: pH 4.4±0.3 (measured by isoelectric point electrophoresis).
Five (5) μl of the enzyme solution was then subjected to isoelectric point electrophoresis (gel; polyacrylamide: conditions of phoresis(a); pH interval 2.5-5; anode electrolyte=0.1M H2 SO4 cathode electrolyte=0.1M NaOH, 6W, 2,700 VH: conditions of phoresis(b); pH interval 4.0-6.5; anode electrolyte=0.04M DL-glutamic acid, cathode electrolyte=0.2M NaOH, 25W, 2,600 VH; temperature, 18°-20° C.) to give a result that the enzyme migrated in a single band at a position which corresponds to pH 4.4±0.2. From the previously-describedfacts, it was confirmed that the purified enzyme solution was one which solely contains 25DKG-Rase.

Data set [2] is described as follows: pH stability of the enzyme (residual activities after treatment in buffers). Type of data set: physicochemical. As to the method:
(determined on the basis of residual activities after treatments in 0.1M dimethylglutaric acid buffer for pH 4-5, in 0.1M Good buffer (PIPES) for pH 6-7 and in 0.1M Tris-HCl buffer for ph 8-9 at 28° C. for 30 minutes). Residual activity of 70% or more is recognized in pH 5-7 while only those of 30% or less are recognized in pH 4 or below, and in pH 8 or above.
Ninety-six (96) % or more of the activity is lost after being stood at pH 4 or below, or pH 8 or above and at 28° C. for 2 hours.

Data set [3] in a line: Optimum pH and range of reaction temperature of the enzyme. Type of data set: biochemical. How it is done:
In order to clarify the relation between the reaction velocity of the 25DKG-Rase and pH, the enzymatic activities were measured by using the following buffers in place of the buffer of the reaction system in (5)-(ii).
The results of the measurements of the enzymatic activities on the substrates, Ca-25DKG and 5KF at the respective pHs are shown in Table 4 below.
The reaction velocities in the reaction system of (5)-(ii) which employs the substrate, Ca-25DKG were measured at varying temperatures from 15° to 50° C.
Enzymatic activities of 25DKG-Rases obtained from K-106 and T-13 were measured at varying pH from 4 to 9 (substrate: Ca-25DKG, reaction temperature: 30° C.).

As to “2,5-diketo-D-gluconic acid reductase [25DKG-Rase]”, the isoelectric point in data set [1] was 4.4±0.2 pH and 4.4±0.3 pH. Besides, the pH stability in data set [2] (28° C. for 30 minutes in 0.1M buffers) was 5-7 pH. Further, the Residual activity in data set [2] (pH 4 or below, and pH 8 or above, 28° C. for 30 minutes) is given as at most 30%; in data set [2] (pH 5-7, 28° C. for 30 minutes), at least 70%. The substance further returned an activity lost in data set [2] (pH 4 or below, or pH 8 or above, 28° C. for 2 hours) of at least 96%. For the same substance, in data set [3], the “optimum pH” value is 6-7 pH.
